This is an account of results in patent US20250236667A1, “ANTIBODIES TO MUTANT CALRETICULIN AND USES THEREOF” (CENTRAL ADELAIDE LOCAL HEALTH NETWORK INC, priority 2021, published 2025).

For one data set, the target named is T1, mutant CALR protein (Homo sapiens, UniProt P27797).
T1 construct: expressed in transfected cells; host or cells: TF-1 TpoR cells, pCX4-IRES eGFP vector
T1 sequence (P27797 with tags, fused parts or gaps limits assumed): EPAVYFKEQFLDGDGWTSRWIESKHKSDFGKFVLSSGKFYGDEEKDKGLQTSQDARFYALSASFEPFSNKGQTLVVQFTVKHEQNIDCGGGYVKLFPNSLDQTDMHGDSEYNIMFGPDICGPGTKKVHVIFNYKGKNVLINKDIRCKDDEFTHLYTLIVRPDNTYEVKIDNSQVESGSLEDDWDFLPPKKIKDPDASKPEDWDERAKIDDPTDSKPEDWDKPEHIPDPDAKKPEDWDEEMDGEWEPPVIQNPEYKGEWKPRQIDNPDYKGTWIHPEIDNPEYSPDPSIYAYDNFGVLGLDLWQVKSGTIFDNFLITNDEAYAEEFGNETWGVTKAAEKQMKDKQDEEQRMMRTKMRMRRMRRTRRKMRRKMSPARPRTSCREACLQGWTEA
Nature of the data set: Western blot detection of mutant CALR by hybridoma clones. The data set is classed as binding. Here is the method: Rats were immunised with a CALR mutant peptide “MMRTKMRMRRMRRT RRKMRRKMSPARPRTS” coupled to KLH, this peptide sequence is unique to CALR mutant. Serum from the immunised rats was screened by enzyme linked immunoassay, to verify a strong titre to the peptide immunogen, prior to performing the hybridoma fusion. Immunised rat spleen cells were harvested and a spleen single cell suspension was combined with Sp2/O myeloma cell line. The cell mixture was treated with polyethylene glycol plus DMEM prior to been plated in 96 well flat bottom plates. The expanding hybridomas were screened initially by ELISA and the positive clones were further verified by western blot, for reactivity to the expressed CALR mutant protein before subcloning the hybridomas for antibody production.
For immunoblotting of total lysates, cells were lysed in NP40 buffer containing 150 mM NaCl, 50 mM Tris pH 7.6, 1% NP-40, supplemented with protease inhibitors (Complete, Roche) and phosphatase inhibitor cocktails, and boiled for 5 minutes after addition of sample buffer (60 mM Tris pH 6.8, 5% glycerol, 1% SDS, 2% β-mercaptoethanol, 0.02% bromophenol blue) before SDS gel electrophoresis followed by Western blotting (Tvorogov et al, 2010). Primary antibodies against pERK (#9101), pSTAT5 (#9359), ERK (#4695), Actin (#4970), Caspase 3 (#14220), wildtype CALR (#12238) were purchased from Cell Signalling. Primary antibodies against pSTATI (#612233), pSTAT3 (#612357), STATI (#610186), STAT3 (#610190), STAT5 (#610192) and Anti-phosphotyrosine 4G10 (#610012) were purchased from BD Biosciences. Mutant CALR monoclonal antibody CAL2 was purchased from Dianova (Hamburg, Germany). Immunopreciptation of TpoR was performed in standard NP40 lysis buffer with additional 50 mM iodoacetamide to avoid any de novo disulfide bond formation post lysis. To reduce IgG background during immunoprecipitation anti-FLAG conjugated to magnetic beads (Sigma, #M8823) were used. For this same reason, anti-FLAG-HRP conjugated antibodies (Sigma, #A8592) were used in western blotting.

Data set [1] is described as follows: Pharmacokinetic measurement of serum level of 4D7. The conditions noted are these: 12.5 mg/kg intraperitoneal injection; 48 hours post injection. The class given is in vivo, mice. Here is the method:
A. Illustration showing bone marrow NSG engraftment model with TPO-independent TF-1 TpoR CALR^del61 cells treated with 4D7 or IgG control twice weekly, starting 7 days after engraftment via intraperitoneal injection and final measurements taken from euthanized mice. B. Pharmacokinetic measurements of serum level of 4D7 in mice after intraperitoneal injection at 1, 24, 48, 72 and 110 hours since administration. C. Percentage of human CD33+myeloid cells measured in peripheral blood at 3 weeks post-tail vein engraftment (n=5 mice per treatment). D. Kaplan-Meier survival curve of bone marrow engraftment model showing improved survival of mice treated with 4D7 compared with IgG control commencing I week after tail vein injection (n=5 mice per treatment). […]
All procedures were approved by the South Australian Health and Medical Research Animal Ethics Committee (Protocol SAM21-018). […] Tail vein bleeds were taken at 3 weeks and analysed via flow cytometry to determine human leukaemia content in the peripheral blood. […] Mice were monitored daily and euthanized once clinical symptoms were observed. […] Additionally, bone marrow from both femurs, spine and spleens were analysed for leukemic content as detailed above. […] Tumour progression was assessed through caliper measurements every 2 days. […]

B1: 4D7: rat monoclonal IgG2a antibody against the mutant CALR neoepitope; VH SEQ ID NO: 5, VL SEQ ID NO: 7 (antibody, listed as Rattus rattus, V domains shown)
VH: QVQLQQSGAELAKPGSSVKISCKASGYTFTNYDMSWIKQRPGQALEWIGAINPGNGVTDYNEKFRGKATLTVDKSSSTAFMQLSSLTPEDTAVYHCAREYRDNYGYFDYWGQGVMVTVSS
VL: DIVLTQTPVSLSVTLGDQASISCRSSQSLEYSDGYTYLDWFLQKPGQSPQLLIYEVSSRFSGVPDRFIGRGSGTDFTLKISRVEPEDLGVYYCFQATHDPFTFGSGTKLEIK
As to B1, in the data set with mutant CALR protein (3 hybridoma screens, FIG. 6A), the “reactivity to the peptide and CALR mutant protein among hybridoma clones” value is reported as “strongest reactivity”. Further, the “detection of mutant CALR protein by Western blot” value with mutant CALR protein (TF-1 TpoR CALR^del61 vs CALR wild type TF-1 cells) is reported as “able to detect mutant CALR protein in CALR^del61 cells but not in CALR wild type TF-1 cells”. Also, in data set [1], the serum concentration result was “more than 100 μg/mL”.
